Reference: publication PMC2742380
“And” between values parts separate entries of the source, which are not always exact repeats. Equal entries are not always repeated.

Tests used:
[1] = target: His6-PA: WT PA with a carboxy-terminal six histidine tag, 63-kDa form (Bacillus anthracis); assay: negative-stain electron microscopy
[2] = target: Protective antigen (PA), wild type, 63-kDa portion of trypsin-nicked PA (Bacillus anthracis); assay: native MS
[3] = target: Protective antigen (PA), wild type, 63-kDa portion of trypsin-nicked PA (Bacillus anthracis); assay: negative-stain electron microscopy

Chain of Protective antigen (PA), wild type, 63-kDa portion of trypsin-nicked PA (Bacillus anthracis) (P13423 197-764 limits assumed): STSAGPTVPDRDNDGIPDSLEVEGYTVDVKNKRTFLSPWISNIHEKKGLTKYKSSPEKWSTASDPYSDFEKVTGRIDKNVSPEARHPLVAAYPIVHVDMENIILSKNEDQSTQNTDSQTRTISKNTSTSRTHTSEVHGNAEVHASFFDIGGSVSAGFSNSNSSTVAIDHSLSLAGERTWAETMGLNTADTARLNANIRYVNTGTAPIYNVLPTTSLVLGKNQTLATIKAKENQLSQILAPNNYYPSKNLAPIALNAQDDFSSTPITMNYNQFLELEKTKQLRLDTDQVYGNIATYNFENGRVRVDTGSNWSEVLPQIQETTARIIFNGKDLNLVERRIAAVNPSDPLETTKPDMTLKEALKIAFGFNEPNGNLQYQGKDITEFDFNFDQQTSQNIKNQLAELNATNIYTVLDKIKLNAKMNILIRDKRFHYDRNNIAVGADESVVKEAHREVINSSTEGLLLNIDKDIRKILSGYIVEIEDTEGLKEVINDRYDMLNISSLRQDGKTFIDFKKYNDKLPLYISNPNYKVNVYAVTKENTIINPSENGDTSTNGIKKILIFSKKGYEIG

With “His6-PA: WT PA with a carboxy-terminal six histidine tag, 63-kDa form (domain or fragment)” the percent of oligomers that are heptamers [1] was 74% and the percent of oligomers that are octamers [1] was 26%.

Work on “LFN, amino-terminal domain of lethal factor (LF residues 1-263) (domain or fragment)” yielded a stoichiometry N (LFN per PA heptamer) [2] of 2 and a stoichiometry N (LFN per PA tetramer) [2] of 2.

With “Protective antigen (PA), wild type, 63-kDa portion of trypsin-nicked PA (domain or fragment)” the stoichiometry N [3] was 7 and 8.
